Measurements published in article doi:10.1101/2022.09.26.507980 (bioRxiv, 2022).

Molecular target: T1, NiV-F wild type expressed on 293T cells (Nipah virus, UniProt Q9IH63)
T1 construct: source: HEK293T, transiently transfected, on cells
Assay: flow cytometry on cells
Conditions: one partner purified

B1: mAb92 (antibody, V domains shown)
VH: QSLEESGGRLVTPGTPLTLTCTASGFSLSSYYMMWVRQAPGKGLEWIGIINTGGNAYYASWTKGRFTISKTSTTVDLKITSPTTEDTATYFCARAVPSGAGYSAGGLWGPGTLVTVSS
VL: DQVLTQTPASVEAAVGGTVTIKCQASQSVGFYLSWYQQKPGQPPKLLIYRASTLESGVPSRFKGSGSGTEFTLTISDLECADAATYYCQTNDYLASSAFGGGTEVVVR
notes: also called monoclonal antibody 92
Question: Does B1 bind?
Answer: binds
